In article PMC9121654 (Biochemical and Biophysical Research Communications, 2022):

Biological target: the molecule itself
Test: SEC

B1: GYINVG-ZYG11B485-728 fusion protein (other)
chain: GYINVGAQLGTELFIVRQLLQIVKQKTNQNSVDTTLKFTLSALWNLTDESPTTCRHFIENQGLELFMRVLESFPTESSIQQKVLGLLNNIAEVQELHSELMWKDFIDHISSLLHSVEVEVSYFAAGIIAHLISRGEQAWTLSRSQRNSLLDDLHSAILKWPTPECEMVAYRSFNPFFPLLGCFTTPGVQLWAVWAMQHVCSKNPSRYCSMLIEEGGLQHLYNIKDHEHTDPHVQQIAVAILDSLEKHIVR
  stoichiometry N: 2
